Results published in US20100113339A1 (Ablynx, published 2010).

Target: T1, mouse serum albumin (mouse, UniProt P07724 25-608)
T1 construct: also called Mouse albumin
Experiment: SPR Biacore 3000; mouse albumin against human/rhesus albumin as reference

T1 sequence (P07724 25-608 limits assumed): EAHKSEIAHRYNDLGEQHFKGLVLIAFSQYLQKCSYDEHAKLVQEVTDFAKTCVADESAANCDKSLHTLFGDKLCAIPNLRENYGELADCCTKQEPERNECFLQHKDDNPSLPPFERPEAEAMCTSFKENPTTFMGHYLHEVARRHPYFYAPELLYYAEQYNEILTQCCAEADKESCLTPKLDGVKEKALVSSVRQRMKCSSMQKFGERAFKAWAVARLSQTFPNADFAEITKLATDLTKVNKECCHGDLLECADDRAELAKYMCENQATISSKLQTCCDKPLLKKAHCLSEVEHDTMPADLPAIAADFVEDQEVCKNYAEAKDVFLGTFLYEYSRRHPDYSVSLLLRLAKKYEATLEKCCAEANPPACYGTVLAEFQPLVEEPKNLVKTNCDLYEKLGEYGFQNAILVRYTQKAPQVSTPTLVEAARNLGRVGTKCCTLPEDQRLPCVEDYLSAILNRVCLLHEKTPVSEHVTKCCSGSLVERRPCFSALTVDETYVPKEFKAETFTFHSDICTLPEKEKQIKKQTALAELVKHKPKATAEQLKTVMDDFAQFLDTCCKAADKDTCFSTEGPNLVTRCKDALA

- factor of difference in affinity for human/rhesus versus mouse serum albumin: 400 fold
B1: PMP6A8 (ALB2) (VHH)
VHH: AVQLVESGGGLVQGGGSLRLACAASERIFDLNLMGWYRQGPGNERELVATCITVGDSTNYADSVKGRFTISMDYTKQTVYLHMNSLRPEDTGLYYCKIRRTWHSELWGQGTQVTVSS
